Data from patent publication US20230192887A1 (published 2023).

Legend:
[1] = target: HER2 on HER2^+ tumor cell lines (BT474, OE19, ZR75) (UniProt P04626 23-1255, limits assumed); experiment: cell-based or functional assay
[2] = target: T1, recombinant human TfR apical domain (human, UniProt P02786 198-378); experiment: SPR (Biacore T200 or 8K); protein captured on anti-human Fab chip, recombinant human TfR apical domain as analyte; 1:1 Langmuir fit
T1 construct: also called transferrin receptor protein 1 apical domain
Method: Affinities of the bispecific proteins were measured by SPR using a Biacore T200 or a Biacore 8K. Biacore™ Series S CM5 sensor chips were immobilized with monoclonal mouse anti-human IgG (Fc) antibody for HER2 affinity measurements or mouse anti-human Fab for TfR affinity measurements (human antibody or Fab capture kit from GE Healthcare). Serial 3-fold dilutions of analyte (recombinant HER2 extracellular domain or recombinant TfR apical domain) were injected at a flow rate of 30 μL/min. Each sample was analyzed using a 3-minute association and a 10-minute dissociation for HER2 extracellular domain binding and a 40-second association and a 3-minute dissociation for human TfR apical domain binding. After each injection, the chip was regenerated using 3 M MgCl₂ or 50 mM glycine at pH 2.0. Binding response was corrected by subtracting the RU from a flow cell capturing an irrelevant IgG at similar density. A 1:1 Languir model of simultaneous fitting of kon and koff was used for kinetics analysis. […] The two constructs are described below.

T1 sequence (P02786 198-378 limits assumed): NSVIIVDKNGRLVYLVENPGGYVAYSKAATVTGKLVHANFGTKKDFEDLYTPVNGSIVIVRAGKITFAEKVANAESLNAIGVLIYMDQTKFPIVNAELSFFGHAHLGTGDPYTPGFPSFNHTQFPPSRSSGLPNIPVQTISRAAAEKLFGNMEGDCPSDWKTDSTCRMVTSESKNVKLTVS

| IC50 (nM), BT474 + NRG1 [1] [nM] | IC50 (nM), BT-474 [1] [nM] | IC50 (nM), OE19 [1] [nM] | Kd [2] [nM] | Binder | Min Cell viability (%), BT474 + NRG1 [1] [%] | Min Cell viability (%), BT-474 [1] [%] | Min Cell viability (%), OE19 [1] [%] | Min Cell viability (%), ZR75-30 [1] [%] |
| --- | --- | --- | --- | --- | --- | --- | --- | --- |
| 3.5 | 2.3 | 1.1 | 500 | Bispecific Protein #9 (bispecific antibody, human IgG1, kappa, L234A L235A) heavy 1: EVQLVESGGGLVQPGGSLRLSCAASGFTFTDYTMDWVRQAPGKGLEWVADVNPNSGGSIYNQRFKGRFTLSVDRSKNTLYLQMNSLRAEDTAVYYCARNLGPSFYFDYWGQGTLVTVSSASTKGPSVFPLAPSSKSTSGGTAALGCLVKDYFPEPVTVSWNSGALTSGVHTFPAVLQSSGLYSLSSVVTVPSSSLGTQTYICNVNHKPSNTKVDKKVEPKSCDKTHTCPPCPAPEAAGGPSVFLFPPKPKDTLMISRTPEVTCVVVDVSHEDPEVKFNWYVDGVEVHNAKTKPREEQYNSTYRVVSVLTVLHQDWLNGKEYKCKVSNKALPAPIEKTISKAKGQPREPQVYTLPPSRDELTKNQVSLWCLVKGFYPSDIAVEWESYGTEWSNYKTTPPVLDSDGSFFLYSKLTVSKEEWQQGFVFSCSVMHEALHNHYTQKSLSLSPGK heavy 2: not shown light: not shown | 37 | 21 | 57 | 87 |
|  |  |  | 480 | Bispecific Protein #2 (bispecific antibody, human IgG1, kappa, L234A L235A) heavy: EVQLVESGGGLVQPGGSLRLSCAASGFTFTDYTMDWVRQAPGKGLEWVADVNPNSGGSIYNQRFKGRFTLSVDRSKNTLYLQMNSLRAEDTAVYYCARNLGPSFYFDYWGQGTLVTVSSASTKGPSVFPLAPSSKSTSGGTAALGCLVKDYFPEPVTVSWNSGALTSGVHTFPAVLQSSGLYSLSSVVTVPSSSLGTQTYICNVNHKPSNTKVDKKVEPKSCDKTHTCPPCPAPEAAGGPSVFLFPPKPKDTLMISRTPEVTCVVVDVSHEDPEVKFNWYVDGVEVHNAKTKPREEQYNSTYRVVSVLTVLHQDWLNGKEYKCKVSNKALPAPIEKTISKAKGQPREPQVYTLPPSRDELTKNQVSLWCLVKGFYPSDIAVEWESYGTEWSNYKTTPPVLDSDGSFFLYSKLTVSKEEWQQGFVFSCSVMHEALHNHYTQKSLSLSPGK not shown light: not shown |  |  |  |  |
